# Assay results: the nanobody polyreactivity screen of Harvey et al. (2022)
# Assay: yeast display, Sf9 membrane polyspecificity reagent, FACS + sequencing; frameworks hold sequencing errors
# Method in brief: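 Galactose-induced (36–48 hours) yeast carrying a synthetic nanobody display library were exposed to 10% biotinylated, detergent-solubilized Sf9 membrane reagent at 4 °C for 1 hour. FACS followed streptavidin microbead enrichment, using low and high (top ~1%) gates for expression (anti-HA) and reagent binding (streptavidin). Colony PCR, MiSeq 2 × 250 sequencing and CDR-length filtering followed. Labels for polyreactivity reflect the gate of origin.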
row,Sequence,polyreactivity (PSR sort gate)
1,QVQLVESGGGLVQAGGSLRLSCAASGRIFWGNGMGWYRQAPGKEREFVAAISKSGGSTYYADSVKGRFTISRDNAKNTVYLQMNSLKPEDTAVYYCNARTSRYRRGGDSWGQGTQVTVSS,high polyreactivity
2,QVQLVESGGRLVQAGGSLRLSCAASGFTFVEYAMGWYRQAPGKERELVAANSRSGSTYYADSVKGRFTISRDNSKNTVYLQMNSLKPEDTAVYYCATLVYRKQYSRYDYWGQGTQVTVSS,high polyreactivity
3,QVQLVESGGGLVQAGGSLRLSCDASGRTFIGYAMGWYRQAPGKERELVAAINWSGARTYYADSVKGRFTISRDNAKNTVYLQMNSLKPEDTAVYYCAAVPVTSQTKYGYWGQGTQVTVSS,high polyreactivity
4,QLQLVDSGGGLVQAGGSLRLSCAASGSIFAQYAMGWYRQAPEKERELVADISGDGSTYYADSVKGRFTISRDNAKNTVYLQMNSLKPEDTAVYYCADRKLYGSPEHGYWGQGTQVTVSS,high polyreactivity
5,QVQLVDSGGGLVQAGGSLRLSCAASGRTYTYYAMGWYRQAPGKERELVAAISKSGGSTYYADSVKGRFTISRDNAKNTVYLQMNSLKPEDTAVYYFAKVYRYSSLYYYWGQGTQVTVSS,low polyreactivity
6,QVQLVESGGGLVQAGGSLRLSCAASGSTFNSNVMGWYRQAPGKERELVAAISRSGGNTYYADSVKGRFTISRDNAKNTVYLQMNSLKPEDTAVYYCNKAGRYPYDYWGQGTQVTVSS,high polyreactivity
7,QVQLVESGGGLVQAGGSLRLSCAASGFIFRYNAMGWYRQAPGKERELVAAITSNGGRTYYADSVKGRFTISRDNAKNTVYLQMNSLKPEDTAVYYCNALGRTYPAYQDDYWGQGTQVTVSS,high polyreactivity
8,QVQLVESGGGLVQAGGSLRLSCAASGSTFPSNAMGWYRQAPGKERELVAAISRSGGSTNYADSVKGRFTISRDNAKNTVYLQMNSLKPVDTAVYYCKADLGRATFYQRVFIERGGYWGQGTQVTVSS,low polyreactivity
9,QVQLVESGGGLVQAGGSLRLSCAASGIIFGTNAMGWYRQAPGKERELVAYITSGGSTYADSVKGRFTISRDKAKNTVYLQMNSLKPEDTAVSYCNADTGKWGGNGWYEFDYWGQGTQVTVSS,low polyreactivity
10,QVQLQESGGGLLQVGGSLRLSCAASGTIFIYGFLGWNRQAPGKERELVASINLGGITNYADSVKGRFTISRDNAKKTVYLQMISLKPEDTAVYYCAAYVVTGQNYGYWGQGTQVTVSS,low polyreactivity
11,QVQLVESAGGLVQAGGRLRLSCAASGFTFKKYAMGWYRQAPGKERELVASITWSGGSTSYADSVKGRFTISRDNAKNTVYLQMTSLKPEDTAVYYCAAATFVYRLRYNRFDYGGQGTQVTVSS,high polyreactivity
12,QDQLVESGGGLDQAGGSLRLSCAASGRTFLWNAMGWYRQAPGKERELVARINLSGGRTYYADSVKGRFTISRDNAKNTVYLQMNSLKPDDTAVYYCAATVVRYRRDSWGQGTQVTVSS,low polyreactivity
13,QVQLVESGGGLVQAGGSLRLSCAASGSIFVSYTMGWYRQAPGKERELVAAITRSGGSTYYADSVKGRFTISRDNAKNTVYLQMNSLKPEDTAVYYCAAGTVDYRGYFEMYFWGQGTQVTVSS,low polyreactivity
14,QVQLVESGGGLVQAGGSLRLSCAASGFIFYRYPMGWYRQAPGKERELVAAISYSGGSTYYADSVKGRFTISRDNAKNTVYLQMNSLKQEDTAVYYCARRQVYKFRRYDYWGQGTQVTVSS,high polyreactivity
15,QVQLVESGGGLVQAGGSLRLSCAASGNTFYSYAMGWYRQAPGKERELVAAITWGGRTKYADSVKGRFTISRDNAKNTVYLQMNSLKPEDTAVYYCAARLYHGKTKYDYWGQGTQVTVSS,high polyreactivity
16,QVQLVESGGGLVQAGGSLRLSCAASGFTFYSNAMGWYRQAPGKERELVAAINWGGGSTYYADSVKGRFTISRDNAKNTVYLQMNSLKPEDTAVYYCAAEPIWEYWNGVSYAYDYWGQGTQVTVSS,low polyreactivity
17,QVQLVESGGGLVQAGGSLRISCAASGRIFSEYAMGWYRQAPGKERELVATITWTGGSTTYADSVKGRFTISRDNAKNTVYLQINSLKPEDTAVYYCAADATRLRTRYKRDYWGQGTQVTVSS,high polyreactivity
18,QVQLVESGGGLVQAGGSLRLSCAASGSTFTGYAMGWYRPAPGKERELVAGITGSGGSTYYADSVKGRFTISRDNAKNTVYLQMNSLKPEDTAVYYCAAELYDYGDLYYSEYDYWGQGTQVTVSS,low polyreactivity
19,QVQLVESGGGLVQAGGSLRLSCAASGITFWNAMGWYRQAPGKERELVAAITSSGGSTYYADSVKGRFTISRDNAKNTVYLQMNSLKPEDTAVYYCAADYGRTRYDMDYWGQGTQVTVSS,low polyreactivity
20,QVQLEESGGGLVQAGGSLPLSCAASGVIFGYYAMGWYIQAPGKERELVAAISKSGGSTYYADSVKARFTISRDNAKNTVYVQMNSLIPEDTAVYDCNADPRTASDQLEFDYWGQGTQVNVSS,low polyreactivity
21,QVQLVESGGGLVQAGGSLRLSCAASGRIFGRYAMGWYRQAPGKERELVAAITSGGRTSYADSVKGRFTISRDNAKNTVYLQMNSLKPEDTSVYYCNVVSRNSIRFDYWGQGTQVTVSS,high polyreactivity
22,QVQLVESGGGLVQAGGSLRLSCAASGSTITYYAMGWYRQAPGKERELVAAISGSGRTHYADSVKGRFTISRDNAKNTVYLQMNSLKPEDTAVYDCNARQYTYNYAFTRCKYDYWGQGTQVTVSS,high polyreactivity

row,Sequence,polyreactivity (PSR sort gate)
1,QVQLVESGGGLVQAGGSLRLSCAASGSTFDVNAMGWYRQAPGKERELVAVITSGGSTNYADSVKGRFTISRDNAKNTVYLQMNRLKPEDTAVYYCAKDSRTLYDYWGQGTQVTVSS,low polyreactivity
2,QVQLVESGGGLVQAGGSLRLSCAASGRTFGSYAMGWYRQAPGKEREFVAGISYGGGRTYYADSVKGRFTISRDNAKNTVYLQMNSLKPEDTAVYYCAADGVYRYNYPYLYTYDYWGQGTQVTVSS,low polyreactivity
3,QVQLVESGGGLVQAGGSLRLSCAASGSIQGKNAMRWYRPAPGKERELVAAISTRGGSTYYADSVKGRFTISRDNAKNSVYFQMNSLKPEDTAVYYCNARWREYKAKWGSRYDYWGQGTQVTVSS,high polyreactivity
4,QFQLGESVGGLVQAGGSLRLSCAGYGSIFLGKAMGWYREATGKEMEFVDAIRISGGSTYYADSVKGRFTISRDNAQYTVYIQMNILKPEDTAVYYCAKFGPRASLYRTGRYYWGQGTQVTVSS,high polyreactivity
5,QVQLVDSGGGLVQAGGSLRLSCAASGFNFASYALGWYRPAPGKERELVAAISQSGGRTYYADSVKGRFTISRDNANNTVYLQMNSLKPEDTAVYYCAAPSYRYIYYSPGTGLGYWGQGTQVTVSS,high polyreactivity
6,QVQLVESGGGLVQAGGSLRLSCAASGRIFSWYAMGWYRQAPGKERELVAAITVRGSTYYADSVKGRFTISRDNAKNTVYLQMNSLKPEDTAVYYCAAGGYPGTTYYGYDYWGQGTQVTVSS,low polyreactivity
7,QVQLVESGGGLVQAGGSLRLSCAASGSTLYAYAMGWYRQAPGKERELVAAISRSGGSTYYAYSVKGRFTISRDNAKNTVYLQMNSLKPEDTAVYYCNAYYRYFRSIYDSWGQGTQVTVSS,high polyreactivity
8,QVQLVESGGGLVQAGGSLRLSCAASGITFPYYAMGWYRQAPGKERELVAAISSSGGSTYYADSVKGRFTISRDNAKNTVYLQMNSLKPEDTAVYYCAAQRYIHYDYWGQGTQVTVSS,high polyreactivity
9,QVQLVESGGGLVQAGGTLRLSCAPSGRIFGIYDMGWYRQAPGKERELVADIDVSDGSTYYADSVKGRFTISRDNAKNTVYLQMNSMKPEDTAVYYCNAEDSSRWYDWYLHDYWGQGTQVTVSS,high polyreactivity
10,QVQLVESGGGLVQAGGSLRLSCAASGRIFTTYAMGWYRQAPGKERELVARITLSAGRTYYADSVKGRFTISRDNAKYSVYLQMNSLKPEDTEVYYCAAEGFYRSSPVRTYIGYDYWGQGTQVTVSS,high polyreactivity
11,QVQLVESGGGLVQAGGSLRLSCAASGSTFSYNAMGWYRQAPGKERELVAAISWSGGSTYYADSVKGRFTISRDNAKNTVYLQMNSLKPEDTAVYYCASDSPYGYYEGDYWGQGTQVTVSS,low polyreactivity
12,QVQLVESGGGLVQAGGSLRLSCAASGRIFRGYAMGWYRQAPGKERELVAAISRRGGSTSYADSVKGRFTISRDNAKNTVYLQMNSLKPEDTAVYYCAVDYSKNGDDYWGQGTQVTVSS,high polyreactivity
13,QVQLVESGGGLVQAGGSLRLSCAASGRTFLINAMGWYRQAPGKEWELVAAITQSGGSTYYADSVKGRFTISRDKAKNTVYLQLNSLKPEDTAVYYCAADVPGVYPYDYWGQGTQVTVSS,low polyreactivity
14,QVQLVESGGGLVQAGGSLRLSCAASGRTLTIYAMGWYRPAPGKERELVAAINWSGGGTYYADSVKGRFTISRDNAKNTVYLQMNRLKPEDTAVYYCAAGRSFRGSYWYEYWGQGTQVTVSS,high polyreactivity
15,QVHLVDSGGGLVQAGGSLSLSCAPSGTTFHPYAMGCYRHAPGKEREFVATISGSAGSTYYADSVKGRFKISRDNAKNTVYLQMNSLKPEDTAVYYCNADSGWFGYDYWGQGTQVTVSS,low polyreactivity
16,QVQLVESGGGLVQAGRSLRLSCAASGITFDDYDMGCYRQAPGKEREFVAAISFSGSSTYYADSVKGRFTISRDNAKNTVYLLMNSLKPEDTAVYYCNADYVYSGCLYYGKDYWFDYWGHGTQVTVSS,low polyreactivity
17,QVQLVESGGGLVQAGGSLRLSCAASGSPFFPYAMGGYRQAPGKERELVAGISSDGGTSYADSVKGRFTISRDNAKNTVYLQMNSLKPEDTAVYYCAKETIGQDPVSGAWARHEYDYWGQGTQVTVSS,low polyreactivity
18,QVQRVESGGGLVQAGGSLRLTCAASGFTFVYYPMGWYRQAPGKVREWVAVISYSGTNTRYADSVKRRFTISRDNAKITVYLQMNSLKPEDTAVYYCAAEIYYVSWYDYWGQGTQVTVSS,high polyreactivity
19,QVQLVESAGGLVQAGGSLRLSCAASGYTFDFYAMGWYRQAPGKERELVAAISKNDGTTYYADSVKGRFTISRDNAKNTVYLQMNSLKPEDTAVYYCAAESGYPVYTYVSSGDYWGQGTQVTVSS,low polyreactivity
20,QVQLVESGGGLVQAGGSLRLSCAASGNIFRINGMGWYRQAPGKERELVAAISFSGGSTYYADSVKGRFTISRDNAKNTVYLQMNSLKPEDTAVYYCNADSTKGWYHDYDYWGQGTQVTVSS,low polyreactivity
21,QVQLVESGGGLVQAGGSLRLSCAASGRIFSRYAMGWYRQAPGTERELVAAISASGGSTYYADSVKGRFTISRDNAKNTVYLQMNSLKPEDTAVYYCNAYQTSTTLFPGYGYWGQGTQVTVSS,low polyreactivity
